40 variants from the Human Domainome abundance scans (Beltran et al. 2025) can be followed below.

B1: Double-stranded RNA-binding protein Staufen homolog 1, residues 183 to 249; numbered along this chain, O95793 (parent)
chain: KSEISQVFEIALKRNLPVNFEVARESGPPHMKNFVTKVSVGEFVGEGEGKSKKISKKNAAIAVLEEL

± gives the uncertainty stated by the source.

The variants in this series derive from B1. Kind of series: abundance fitness (aPCA) (normalised: wild type 0, dead -1); higher = more abundant; growth selection in yeast, the domain comes from the species named. The following applies: Homo sapiens.
Consider KREISQVFEIALKRNLPVNFEVARESGPPHMKNFVTKVSVGEFVGEGEGKSKKISKKNAAIAVLEEL [S2R], for which the abundance fitness was -0.382 ± 0.048.

Take KPEISQVFEIALKRNLPVNFEVARESGPPHMKNFVTKVSVGEFVGEGEGKSKKISKKNAAIAVLEEL [S2P]: the abundance fitness is -0.328 ± 0.051.

With KFEISQVFEIALKRNLPVNFEVARESGPPHMKNFVTKVSVGEFVGEGEGKSKKISKKNAAIAVLEEL [S2F], the abundance fitness is -0.709 ± 0.098.

With KHEISQVFEIALKRNLPVNFEVARESGPPHMKNFVTKVSVGEFVGEGEGKSKKISKKNAAIAVLEEL [S2H], the abundance fitness was -0.546 ± 0.096.

As to KDEISQVFEIALKRNLPVNFEVARESGPPHMKNFVTKVSVGEFVGEGEGKSKKISKKNAAIAVLEEL [S2D], the abundance fitness was -0.382 ± 0.072.

For the variant KYEISQVFEIALKRNLPVNFEVARESGPPHMKNFVTKVSVGEFVGEGEGKSKKISKKNAAIAVLEEL [S2Y], the abundance fitness is -0.653 ± 0.087.

KCEISQVFEIALKRNLPVNFEVARESGPPHMKNFVTKVSVGEFVGEGEGKSKKISKKNAAIAVLEEL [S2C]: the abundance fitness was -0.482 ± 0.11.

In the case of KAEISQVFEIALKRNLPVNFEVARESGPPHMKNFVTKVSVGEFVGEGEGKSKKISKKNAAIAVLEEL [S2A], the abundance fitness was -0.41 ± 0.051.

For KGEISQVFEIALKRNLPVNFEVARESGPPHMKNFVTKVSVGEFVGEGEGKSKKISKKNAAIAVLEEL [S2G], the abundance fitness was -0.136 ± 0.052.

Regarding KTEISQVFEIALKRNLPVNFEVARESGPPHMKNFVTKVSVGEFVGEGEGKSKKISKKNAAIAVLEEL [S2T], the abundance fitness was -0.235 ± 0.052.

Regarding KVEISQVFEIALKRNLPVNFEVARESGPPHMKNFVTKVSVGEFVGEGEGKSKKISKKNAAIAVLEEL [S2V], the abundance fitness is -0.7 ± 0.11.

In the case of KKEISQVFEIALKRNLPVNFEVARESGPPHMKNFVTKVSVGEFVGEGEGKSKKISKKNAAIAVLEEL [S2K], the abundance fitness was -0.015 ± 0.099.

For the variant KWEISQVFEIALKRNLPVNFEVARESGPPHMKNFVTKVSVGEFVGEGEGKSKKISKKNAAIAVLEEL [S2W], the abundance fitness was -0.902 ± 0.16.

Turning to KIEISQVFEIALKRNLPVNFEVARESGPPHMKNFVTKVSVGEFVGEGEGKSKKISKKNAAIAVLEEL [S2I], the abundance fitness is -1.02 ± 0.26.

Take KQEISQVFEIALKRNLPVNFEVARESGPPHMKNFVTKVSVGEFVGEGEGKSKKISKKNAAIAVLEEL [S2Q]: the abundance fitness is -0.305 ± 0.076.

Regarding KEEISQVFEIALKRNLPVNFEVARESGPPHMKNFVTKVSVGEFVGEGEGKSKKISKKNAAIAVLEEL [S2E], the abundance fitness is -0.381 ± 0.082.

As to KSEIFQVFEIALKRNLPVNFEVARESGPPHMKNFVTKVSVGEFVGEGEGKSKKISKKNAAIAVLEEL [S5F], the abundance fitness was -0.512 ± 0.2.

In the case of KSEIPQVFEIALKRNLPVNFEVARESGPPHMKNFVTKVSVGEFVGEGEGKSKKISKKNAAIAVLEEL [S5P], the abundance fitness is -0.528 ± 0.16.

With KSEISNVFEIALKRNLPVNFEVARESGPPHMKNFVTKVSVGEFVGEGEGKSKKISKKNAAIAVLEEL [Q6N], the abundance fitness was -0.494 ± 0.03.

Take KSEISRVFEIALKRNLPVNFEVARESGPPHMKNFVTKVSVGEFVGEGEGKSKKISKKNAAIAVLEEL [Q6R]: the abundance fitness is -0.097 ± 0.026.

As to KSEISFVFEIALKRNLPVNFEVARESGPPHMKNFVTKVSVGEFVGEGEGKSKKISKKNAAIAVLEEL [Q6F], the abundance fitness is -0.653 ± 0.038.

For the variant KSEISDVFEIALKRNLPVNFEVARESGPPHMKNFVTKVSVGEFVGEGEGKSKKISKKNAAIAVLEEL [Q6D], the abundance fitness is -0.435 ± 0.033.

Regarding KSEISMVFEIALKRNLPVNFEVARESGPPHMKNFVTKVSVGEFVGEGEGKSKKISKKNAAIAVLEEL [Q6M], the abundance fitness is -0.169 ± 0.038.

Take KSEISHVFEIALKRNLPVNFEVARESGPPHMKNFVTKVSVGEFVGEGEGKSKKISKKNAAIAVLEEL [Q6H]: the abundance fitness is -0.415 ± 0.034.

On to KSEISCVFEIALKRNLPVNFEVARESGPPHMKNFVTKVSVGEFVGEGEGKSKKISKKNAAIAVLEEL [Q6C], for which the abundance fitness was -0.283 ± 0.033.

With KSEISPVFEIALKRNLPVNFEVARESGPPHMKNFVTKVSVGEFVGEGEGKSKKISKKNAAIAVLEEL [Q6P], the abundance fitness is -0.697 ± 0.038.

Take KSEISLVFEIALKRNLPVNFEVARESGPPHMKNFVTKVSVGEFVGEGEGKSKKISKKNAAIAVLEEL [Q6L]: the abundance fitness is -0.158 ± 0.027.

For KSEISGVFEIALKRNLPVNFEVARESGPPHMKNFVTKVSVGEFVGEGEGKSKKISKKNAAIAVLEEL [Q6G], the abundance fitness was -0.634 ± 0.028.

For the variant KSEISIVFEIALKRNLPVNFEVARESGPPHMKNFVTKVSVGEFVGEGEGKSKKISKKNAAIAVLEEL [Q6I], the abundance fitness is -0.393 ± 0.034.

For the variant KSEISEVFEIALKRNLPVNFEVARESGPPHMKNFVTKVSVGEFVGEGEGKSKKISKKNAAIAVLEEL [Q6E], the abundance fitness is -0.021 ± 0.037.

Take SSEISQVFEIALKRNLPVNFEVARESGPPHMKNFVTKVSVGEFVGEGEGKSKKISKKNAAIAVLEEL [K1S]: the abundance fitness was -0.316 ± 0.071.

For YSEISQVFEIALKRNLPVNFEVARESGPPHMKNFVTKVSVGEFVGEGEGKSKKISKKNAAIAVLEEL [K1Y], the abundance fitness is -0.211 ± 0.11.

Consider ISEISQVFEIALKRNLPVNFEVARESGPPHMKNFVTKVSVGEFVGEGEGKSKKISKKNAAIAVLEEL [K1I], for which the abundance fitness is -0.201 ± 0.092.

Turning to TSEISQVFEIALKRNLPVNFEVARESGPPHMKNFVTKVSVGEFVGEGEGKSKKISKKNAAIAVLEEL [K1T], the abundance fitness was -0.166 ± 0.065.

In the case of RSEISQVFEIALKRNLPVNFEVARESGPPHMKNFVTKVSVGEFVGEGEGKSKKISKKNAAIAVLEEL [K1R], the abundance fitness is -0.178 ± 0.048.

Regarding FSEISQVFEIALKRNLPVNFEVARESGPPHMKNFVTKVSVGEFVGEGEGKSKKISKKNAAIAVLEEL [K1F], the abundance fitness was -0.602 ± 0.28.

As for NSEISQVFEIALKRNLPVNFEVARESGPPHMKNFVTKVSVGEFVGEGEGKSKKISKKNAAIAVLEEL [K1N], the abundance fitness is -0.079 ± 0.12.

Turning to WSEISQVFEIALKRNLPVNFEVARESGPPHMKNFVTKVSVGEFVGEGEGKSKKISKKNAAIAVLEEL [K1W], the abundance fitness is -0.514 ± 0.073.

Regarding VSEISQVFEIALKRNLPVNFEVARESGPPHMKNFVTKVSVGEFVGEGEGKSKKISKKNAAIAVLEEL [K1V], the abundance fitness is -0.335 ± 0.054.

With HSEISQVFEIALKRNLPVNFEVARESGPPHMKNFVTKVSVGEFVGEGEGKSKKISKKNAAIAVLEEL [K1H], the abundance fitness is -0.738 ± 0.2.
